The record followed here is patent US7303752B2, “Hookworm vaccine” (The George Washington University, priority 2001, dated 2007).

Test [1] has as its system antibody to recombinant proteins. Description: Pre-challenge antibody titer ELISA, trial with Ac-ASP-2, Ac-API, Ac-MEP-1, Ac-APR-1 in AS03. Particulars: for antibody response, in words: AS03. It counts as in vivo, dog. As for the experimental part:
(§1) The vaccine trial was designed to test Ac-API, Ac-ASP-2, Ac-MEP-1, Ac-APR-1 formulated with Adjuvant System 03 (AS03) obtained from GlaxoSmithKline (GSK). The rationale for selecting AS03 as an adjuvants is discussed elsewhere (Stoute et al, 1997). The ten purpose bred beagles were randomized into five arms: immunized with the adjuvant-formulated recombinant proteins or adjuvant only (control). To make six doses of antigen formulated with AS03, […] of recombinant protein (0.3 ml of antigen at a concentration of 2 mg.ml^−1) was mixed with 1.2 ml of 20 mM Tris-HCl, 0.5 M NaCl, pH 7.9 and 1.5 ml of AS03; the contents of the tube were vortex mixed for 30 seconds then shaken at low speed for 10 minutes. Dogs were immunized with 100 g of formulated antigen in a final volume of 0.5 ml. ASO3 only control was prepared as described above, with PBS included instead of antigen. Formulation of GSK adjuvants were conducted according to the protocol provided by GSK. All injections were performed intramuscularly (IM). Test and control articles were prepared on the day of injection. All animals received 4 immunizations approximately 3 weeks apart.
Beagles were immunized with formulated Ac-ASP-2 as previously described (Loukas et al, 2004). The vaccines were administered IM three times beginning at age 62+/−4 days. Boosts were administered to the dogs at intervals of 21 days. Blood was drawn at least once every 21 days and serum was separated from cells by centrifugation. Each animal's specific antibody response was evaluated by indirect ELISA using serum taken prior to the infective challenge (Loukas et al, 2004). Recombinant Ac-ASP-2 was coated onto microtiter plates at a concentration of 5 g.ml^−1. Dog sera were titrated between 1:100 and 1:2×10^6 to determine endpoint titers. Anti-canine IgG1, IgG2 and IgE antibodies conjugated to horse-radish peroxidase (Bethyl Laboratories) were used at a dilution of 1:1,000.
For orientation: ELISA stands for enzyme-linked immunosorbent assay.

The next test deals with A. caninum. Put plainly: Canine vaccine trial with Ac-ASP-2, Ac-API, Ac-MEP-1, Ac-APR-1 in AS03, footpad challenge with 500 A. caninum L3. Particulars: for worm burdens, Maximum / worm burdens, Minimum / worm burdens, Mean / worm burdens, Median: 5 dogs; for worm burdens, Mean: ASO3 control 203.8000; for worm burdens, Median: ASO3 control 215.0000; for worm burden, Colon, Male, Average / worm burden, Colon, Female, Average / worm burden, Intestine, Female, Average / worm burden, Intestine, Male, Average / worm burden, Total, Average: group average; for worm burden, Colon, Male, Average: AS03 control 5; for worm burden, Colon, Female, Average: AS03 control 9; for worm burden, Intestine, Female, Average: AS03 control 95; for worm burden, Intestine, Male, Average: AS03 control 96; for worm burden, Total, Average: AS03 control 204; for worm burden, Colon, Female / worm burden, Colon, Male / worm burden, Intestine, Female / worm burden, Intestine, Male / worm burden, Total: individual dogs. It counts as in vivo, dog. The protocol: as §1, with “The ten purpose bred beagles were randomized into five arms: immunized with the adjuvant-formulated recombinant proteins or adjuvant only (control).” left out
A. caninum larvae were cultured from eggs collected in the feces of infected dogs. All hookworms in the infective challenge were approximately equal age (17±7 days post hatching). The species identity of the infective larvae were validated using PCR. All dogs were infected by the footpad method with the same dose of 500 L3 of A. caninum (Zhan et al, 2001). Larval challenge occurred on one of three consecutive days (at age 120+/−9 days). Fourteen-sixteen days after the final immunization, dogs were anesthetized using a combination of ketamine and xylazine (20 mg.kg^−1 and 10 mg.kg^−1 respectively), and 500 A. caninum L3 in a final volume of […] were applied to the footpad.

Several values for one entry are separate records, joined by “and”; a condition that tells them apart may be missing. Equal entries are not always repeated.

B1: Ac-API: A. caninum aspartyl protease inhibitor antigen, SEQ ID NO: 38 (protein, listed as Ancylostoma caninum)
chain: MKLLALSALFALAFAAPRDKRLAVSTITVTGGLGLSTGCVVTGNVLYANGFRVREITPSEQQELVKYQNDVAEYKTALKQAIKEREEKIRARLAGKKVKAVESTNQEDLPKPPQKPSFCTPEDTTQFFFEGCMIQNNKIYVGNTFARDLTQPEISELKEFEKKFKVYQDYVQKQAEQQVNSLFGGSDFFSALFSGGETSKPSTTTVAPELPEDAPEQPPTPNFCTRII
On to B1, for which the “antibody response, in words” value in test [1] was “robust”. In addition, in test [1] (geometric mean of group), the “Pre-challenge antibody titer, IgE, GEOMEAN” value is reported as 100; the “Pre-challenge antibody titer, IgG1, GEOMEAN” value is 3,612; the “Pre-challenge antibody titer, IgG2, GEOMEAN” value is given as 32,511. Also, in test [1] (individual dogs), the “Pre-challenge antibody titer, IgE” value is recorded as 100; the “Pre-challenge antibody titer, IgG1” value is 4,500 (4×) and 1,500; the “Pre-challenge antibody titer, IgG2” value is 40,500 (4×) and 13,500. In the test on A. caninum, the “worm burdens, Maximum” value stood at 237.00; the “worm burdens, Minimum” value is 146.00; the “worm burdens, Mean” value amounted to 187.800; the “worm burdens, Median” value was found to be 167.0000. Further, in the test on A. caninum, the “worm burden, Colon, Male, Average” value is 5; the “worm burden, Colon, Female, Average” value came to 12; the “worm burden, Intestine, Female, Average” value is recorded as 83; the “worm burden, Intestine, Male, Average” value stood at 87. Moreover, in the test on A. caninum, the “worm burden, Total, Average” value was found to be 188; the “worm burden, Colon, Female” value was 3 and 1 and 12 and 24 and 21; the “worm burden, Colon, Male” value is 3 and 0 and 2 and 9 and 10; the “worm burden, Intestine, Female” value is 86 and 83 and 66 and 91 (2×). Further, in the test on A. caninum, the “worm burden, Intestine, Male” value is 54 and 83 and 80 and 105 and 115; the “worm burden, Total” value was 146 and 167 and 160 and 229 and 237. For the same molecule, in the test on A. caninum (relative to the control group), the “fecal eggs (fecundity), in words” value is “significant reduction in fecal eggs”. In addition, the “worm burden, in words” value in the test on A. caninum (versus AS03 control) is reported as “no remarkable reduction in worm burden”.

B2: Ac-MEP-1: A. caninum metalloendopeptidase antigen, SEQ ID NO: 14 (protein, listed as Ancylostoma caninum)
chain: MAKLLEVTTGLVVLLGVLGVISVVFNVLTWLKLNENKDDSSPAPKIWNVGEQDNTPVLTNLLVLEKEELAAKLKKTPYEEVDEQTVRQSSVMKLRNIKNALFTIEPVASALPPLRVNDPKYCPSYGEPDKKYAYQEAASYLLSGLDQTVDPCEDLYAFTCNTYLRNHNATDIGVNRIGTYKDAQDDVNAEIVEALEEVNVSDTKWSETERLVKATLFTCVHHTRARKPIDNSKNVLIEMRDLFGGIPFLNHTLKKDIDFFDIMGKFEQNHAMGTLLGAMVSVDFKNVNKHSLFLSQPYLPMARDFYVFPQHTKMVENRVSLINSVLRSFAEAVLDDPSPYLDLMSRSARDVVKLEMQIAMASWPESELRNYAQQHNPRTLNQLKAAYPAIKWDSYFNALLSSVQGVDMNRQNIILTQPSYFGWLNALFNGGADDKTIANYLLVHLILEEADFLGGALKTMVQKSDYVPYALGRGKGVTRVGQQLTRSHDDTVEDANIQCLNSMMTYMPFGPGYVYVKSRKNRDDVVKDIEHQTELVFKNFVNMIGNLNWMTDASLELAMEKADTMVKNYGWPKDLFGNFRDSSKIDAYHKKDYGNIINLYKENITHNYYHIRRTMIKGYSNHESLRLLTEAPKRDHFLLSPALVNAWYIPERNSIAFPYAFWNPPYYNYEYPQACNYAGQGGTAGHELVHGFDDQGVQFAADGSLSDCTWIECGWLEEKSKKGFSDMAQCVVTQYSTQCCPQTGGVTHCANGATTQGENIADLGGQLAAYRAYREYITKERGEEEKRLPGLEQYTPNQIFWITYGYSWCMSQTDSSLIRQLLTDVHSPGSCRVNQVMQDIPEFALDFGCTMGQKMYPEPEQRCPVWVAE
B2: the “antibody response, in words” value in test [1] is recorded as “weak”. Further, in test [1] (geometric mean of group), the “Pre-challenge antibody titer, IgG1, GEOMEAN” value is listed as 100 and the “Pre-challenge antibody titer, IgG2, GEOMEAN” value was 1,204. In addition, in test [1] (individual dogs), the “Pre-challenge antibody titer, IgG1” value came to 100; the “Pre-challenge antibody titer, IgG2” value is 1,500 (4×) and 500. In the test with A. caninum, the “worm burdens, Maximum” value is recorded as 293.00; the “worm burdens, Minimum” value was determined as 109.00; the “worm burdens, Mean” value is 183.4000; the “worm burdens, Median” value was determined as 129.0000. Also, in the test on A. caninum, the “worm burden, Colon, Male, Average” value came to 3; the “worm burden, Colon, Female, Average” value turned out to be 6; the “worm burden, Intestine, Female, Average” value came out at 91; the “worm burden, Intestine, Male, Average” value is 87. For the same molecule, in the test with A. caninum, the “worm burden, Total, Average” value was found to be 183; the “worm burden, Colon, Female” value was 0 and 2 and 7 and 9 and 12; the “worm burden, Colon, Male” value is 0 and 1 and 2 and 5 and 8; the “worm burden, Intestine, Female” value was 64 and 58 and 153 and 130 and 50. In the test on A. caninum, the “worm burden, Intestine, Male” value was 65 and 47 and 131 and 124 and 49; the “worm burden, Total” value was 129 and 108 and 293 and 268 and 119. In addition, the “worm burden reductions in three out of the five vaccinated dogs” value in the test with A. caninum (versus control mean) is “exceeded 36%”.
